Assay results as given in patent US20260117244A1, “INHIBITORY RNA FOR THE CONTROL OF PHYTOPATHOGENS” (priority 2021, published 2026).

Tested on: G. orontii MGH1
Assay: Spray-induced gene silencing (SIGS), G. orontii spore production on A. thaliana (whole plant and detached leaf assays)
Assay type: in vivo, Golovinomyces orontii
Conditions: for average reduction in spore production / effect on spore production: vs buffer control; for effect on spore production: long dsRNA
[1] = topical dsRNA against G. orontii target (Gor Seq ID), n>=3
[2] = A. thaliana detached leaf assay

Row | Molecule | average reduction in spore production [2] [%] | average reduction in spore production (A. thaliana whole plant assay) [%] | also measured
1 | 2 (nucleic acid, listed as Golovinomyces orontii, listed as DNA) ATGTCTAGGCATACATCTGCATTTTTCGTTCTCTTTCCTACATTATTCGTCATATTAGCCAGTGCCTATCAATCACACTATGGCTCATCCTATCATCAGCAAGAGTCTCTTCAATCTGACGCACAATGGAATAGCAATATCTCTGATACTTTATTCCTGGAGCTAGAGGAACTAGCTCGTATCGTTGATATTGCTTACTGTGTTGGTACAACAGGAATCTCTAGCCCTTTTGTATGCGCCTCGCATTGCAGCGATTTTCCAAGCTTTGAACTCGTGGATACATTCCATTCAGGATACTTATTGGGCAATAGTTGCGGTTACATTGCACTTGATCATGCGTCGGACAATAACAGAGGACGAATACTGGTAGTTTTCAGGGGTACATACAGTATCGACGACACTATAATAGACCTGACTATGGTACCACAAAAGTACGCGCCATACCCGTCTCATCACGAAAATAATTTCAAAAGATCAGAATCAAGCCCACTTTTTAATTTAATACCTAGTAAAGAAATTCGGTCCCTCTTACGCTCATTCTCACGTATATTTCATCGTCGAAAAGGAAGTAGGCCAGAAAGACATATGCACTCTAACATTGAATGTACGAACTGCACTGTTCATATGGGATTTTGGACAAGCTACCAACAAATACGTCCTCATTTATTCTCCAAGATTAGTAGCCTTCGAAAAAAATTCCCTAACTATCGATTGGATTTAGTCGGACACTCACTAGGTGGCGCTGTTGCTGCTCTTGCTGGACTTGATCTTAAATTACTTGGATACGAACCTATCGTAACAACCTTTGGTGAGCCACGCGTTGGAAATACTGGATTCAGAGATTTCATGGATGCCACATTTAACCTACGCTCCCAGAACTCAGGGGGTCATTTAGACATGCCAAGCTGCAAAGATCACTATCGTAGAGTGACTCATACAAGTGATCCTATGCCATTACTACCGCCGCAAGATTTTGGCTATCGCCCACATGCTGGCGAGGTATTCATCTCAAAACGAGATCTTCCAGTGGCAATACAAGACGTTCGTCACTGTTTTGGTGACGATGATGTGAACTGTATCGAGGAAAGAGGAAACAATAGAGTTTGGACTGATTTATCTGAGACGTCGAAAATAAGAGCCGGCACCAAAGACTCCTTAGATGCCAGGGGTGGCGAATTGAAAAAACGAGATAGGGTACGATTACATCCTCCCCATCTTTGGCGACCCTTTCTAGCGCATCGTGACTATTTTTGGCGCCTAGGATTATGCGTTCCAGGAGATGATCCAACTGGTCAAGTAAGAGACGAGGTTTAG |  |  | G. orontii Spore Production on Arabidopsis, Detached Leaf Assay, % reduction [1]: 67%; G. orontii Spore Production on Arabidopsis, Whole Plant Assay, % reduction (topical dsRNA against G. orontii target (Gor Seq ID), whole plant assay, n>=3): 41%
2 | 15 (nucleic acid, listed as Golovinomyces orontii, listed as DNA) CCTTTTGATTACTCCGCCCAACTTTTTTTTTTTAGGTTTTCAGTACTTCACCCTAGGAAGCTCCTCAATCATCATTTCTGAAAAGATGTCATCGTCTCTAGACCAACTTAAATCCACTGGAACTACTATTGTCTGTGATTCAGGTGATTTTGAATCAATTGGCAAATATAAACCTC |  |  | G. orontii Spore Production on Arabidopsis, Detached Leaf Assay, % reduction [1]: 38%
3 | CYP51 dsRNA-1: long dsRNA targeting G. orontii MGH1 CYP51 (target SEQ ID NO:85); link to SEQ ID NO:212 likely (nucleic acid, misc_feature 1..199: note = Inhibitory double stranded RNA; listed as RNA) TACGTGAAGAAGTGTCCCAGCTTCAAAGGACAAAAAGGCACCGTTAATATAACTGAAGTTATGGCTGAAATCACTATCTACACTGCTTCGCATACTCTACAAGGAAAACAGGTTCGTGACAGGTTTGATTCCTCTTTTGCCGCTCTCTATCATGACCTCGATATGGGGTTCACCCCAATTAATTTTGTGCTGCATTGGG | 30 | 46 | visual powdery mildew coverage and density (A. thaliana plants, 9 days post infection, vs buffer control-sprayed plants): less powdery mildew coverage and density
4 | BCDO dsRNA: long dsRNA targeting G. orontii MGH1 BCDO (target SEQ ID NO:145) (nucleic acid, misc_feature 1..267: note = Inhibitory double stranded RNA; listed as RNA) ACTGCTCATAGTAATCCTATCCTATTTGCCCGGCTCGACTCAGGTGATCAAAAGGATTAGTGTAGCTAACACCAATATCTTATACCATGATGGACGGGCTTTGGCGACCTGCGAAAGTGGCCCACCAATGAGAGTTGTTCTCCCTCATCTGGATACAGTCGGTTGGTTCGATGGGCTGAAGGTAGGGGGAGAAAAGGCTACCGATGAATCGGACGGTCAATCCTTTGCGAAAGAAGGAACCTTTAATGTATTGGATGGACGGACAAC | 54 | 50 | 
5 | OEC14 dsRNA: long dsRNA against G. orontii effector candidate 14 (target SEQ ID NO:124) (nucleic acid, misc_feature 1..223: note = Inhibitory double stranded RNA; listed as RNA) CACAACAGCTCTCCTAATCTCTCCCTCCCTAGGAGTTAATTCAGCTCAGAACGGCGAAACTCCCGATGACGATTCATTAGGTTCTACGAAACACATGAACTTTGGCTCTGGTCTCTCTGAATTCAATGCTCATGAAGATATGTATGTTCCTGCCATGGATCTGAATGGGTTTAGAATAAAGCGACGACATTTTCAAAATGAAGGCTATTACTGCAGCAAATCG |  |  | effect on spore production (A. thaliana whole plant assay): significantly reduced spore production
6 | OEC60/OEC61 dsRNA: long dsRNA against G. orontii effector candidate 60/61 (target SEQ ID NO:122) (nucleic acid, misc_feature 1..202: note = Inhibitory double stranded RNA; listed as RNA) CACAAAATGGGCCAAATGGGAAATTGTCGAGCTAATTGTGATTGGAAACGAAGCCCTATTTAATGGCCATACTTCTCCAGATGAGCTCGCAAGATTTATTAGCTCAACCAGAAATACACTACGATCCTCTGGTTACAATGGACCTTGCACAACAGCTGAGCCTCTCAATATCTGGCAGCAAAGCTCGGATGTATTGTGTGGT |  |  | effect on spore production (A. thaliana whole plant assay): significantly reduced spore production
7 | LIP1 dsRNA: long dsRNA against G. orontii TAG lipase 1 (target SEQ ID NO:1) (nucleic acid, misc_feature 1..344: note = Inhibitory double stranded RNA; listed as RNA) ACCTCTGCTGGTTCTATCTCTGCTTTTAACTTATTAGTCGCCAAAGATGGTGCTTTATCTTATAATGGCAAACCGCTATTCCGTGCTGCTATTATGGACAGTGGTAGCATCGTGCCTACTGATGCGGTGAACTCCCCGAAGCCACAAAATGTTTTCGATCAAGTCGTGAGTGCTGGAGGCTGTAGTGAAGCATATGACAAAATTAGCTGTCTACGGAATCTCGACTACACCGAGTTTTTGTTCGCAAGTACATCAGTTCCTGGTCTATTTGACTACCAATCAGTAGCACTTTCATACATCCCGCGACCTGACGGTGATCTTTTGACCGCATCTATGGATGAATT | 51 | 22 | 
8 | AATF dsRNA: long dsRNA against G. orontii apoptosis antagonizing transcription factor (target SEQ ID NO:92) (nucleic acid, misc_feature 1..284: note = Inhibitory double stranded RNA; listed as RNA) TCCGAAGGAGAGTATTCATCAGAAACTCAGGTTTCAGAATACTCGGACGATCAACTCAACTCTGATAATCTTGAAGATGAAGAATCTGATAGTGATGATGATGATGATATTGGAGATGAAAGAACCGAACGATCCGAAATTCAGAAAATCATGAAAGAAGATCAAAAGACCGTGGTATCAACAATATCTCAAGCAGTAAAAGCAGATGTTGAAAAGGGTAAAGCTGTCAAGGCTCAGCGAATGAGATTCGATTGTTTGTTAAATGTACGAATGGCAATGCAAAA | 32 | 21 | 
9 | LIPA dsRNA: long dsRNA against G. orontii TAG lipase A (target SEQ ID NO:2) (nucleic acid, misc_feature 1..278: note = Inhibitory double stranded RNA; listed as RNA) CTCTTACGCTCATTCTCACGTATATTTCATCGTCGAAAAGGAAGTAGGCCAGAAAGACATATGCACTCTAACATTGAATGTACGAACTGCACTGTTCATATGGGATTTTGGACAAGCTACCAACAAATACGTCCTCATTTATTCTCCAAGATTAGTAGCCTTCGAAAAAAATTCCCTAACTATCGATTGGATTTAGTCGGACACTCACTAGGTGGCGCTGTTGCTGCTCTTGCTGGACTTGATCTTAAATTACTTGGATACGAACCTATCGTAACAAC | 67 | 41 | 
10 | OEC70 dsRNA: long dsRNA against G. orontii effector candidate 70 (target SEQ ID NO:123) (nucleic acid, misc_feature 1..233: note = Inhibitory double stranded RNA; listed as RNA) ACAGAGACCGTAACCGTAACTGTCTGTGCACCATCTGCCTCTGCCCATCCCTCTTCGGGATATGCTATGCCATCAGTCTATCCGGCACCAGTTTCATCAGACCCTGCCAGTCCTGCATACCCGCCAAGCGCTTCTGGTGGCTACTCCTCTCCACCACCAAACCAAACTCCAGCACCATTCACCGGCGCCGCTTCAGCAAACGCAGCTCAGGTAGTATCAGCCATTATTGCTGC |  |  | effect on spore production (A. thaliana whole plant assay): significantly reduced spore production
11 | APC1 dsRNA: dsRNA against G. orontii APC1, Anaphase promoting complex/20S cyclosome subunit (target SEQ ID NO:163) (nucleic acid, misc_feature 1..269: note = Inhibitory double stranded RNA; listed as RNA) AGATTGGTATTATCTCGCCTGAATATGCAACGTTTAGAAGTTCTATTCAGACAAAGCCGACTCTTAATCAACGCAAGGTTTTTACGGTGGCGCCGCCCTTGTGCGCTTCTGACGATGTACAGGAGAATTCTTGTATTATTTGTATCCTTGATCCTAATGAAAAGAAACTTATTACTGTAAATTTAAATATCAAGGCCTCGGAGCAAAAAAGTGAACTCGCAAAATCGGAAAATCTAAAATCTAAGAAAGAGGCAACTACAGTGTCACTT |  |  | reduction in spore production (assay format not stated): 48%
